Here are results for 1 sequence from article PMC12059597.

pKd: −log10 of the molar value.

Series [1] relates to CD44 (predominantly standard isoform CD44s) on human TNBC cells (Homo sapiens (Cis-Pt-R, MDA-MB-231, BT-549 cells)), P16070-12. Kind of series: flow cytometry cell binding. The conditions noted are these: apparent Kd on whole Cis-Pt-R cells; 2'-fluoro pyrimidines (2'F-Py) in the entire sequence; Flow cytometry: 150 nM Alexa 647-sTN58, serum-free medium, 0.1 mg/mL yeast tRNA, 0.1 mg/mL salmon sperm DNA, 10 min RT, after 30-fold excess unlabeled SCR …; cited from earlier work.

Series [2] has the same test system. Kind of series: flow cytometry cell binding with siRNA knockdown. The conditions noted are these: 150 nM aptamer, 2'-fluoro pyrimidines (2'F-Py) in the entire sequence, Flow cytometry: 150 nM Alexa 647-sTN58, serum-free medium, 0.1 mg/mL yeast tRNA, 0.1 mg/mL salmon sperm DNA, 10 min RT, after 30-fold excess unlabeled SCR …, scale: % reduction of binding on CD44 knockdown vs siRNA ctrl.

Chain of CD44 (predominantly standard isoform CD44s) on human TNBC cells (Homo sapiens (Cis-Pt-R, MDA-MB-231, BT-549 cells)), P16070-12 (P16070 other isoform, or with tags, fused parts or gaps): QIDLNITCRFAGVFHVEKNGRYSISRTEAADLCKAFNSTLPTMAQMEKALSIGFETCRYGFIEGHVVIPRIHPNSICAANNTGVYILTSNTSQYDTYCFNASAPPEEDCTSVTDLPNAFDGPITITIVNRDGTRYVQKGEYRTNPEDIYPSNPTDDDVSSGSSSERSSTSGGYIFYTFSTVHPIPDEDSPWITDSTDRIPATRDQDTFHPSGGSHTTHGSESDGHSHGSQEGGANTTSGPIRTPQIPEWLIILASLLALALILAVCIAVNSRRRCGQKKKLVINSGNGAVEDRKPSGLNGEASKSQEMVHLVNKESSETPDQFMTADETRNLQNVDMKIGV

In general, pKd refers to the negative decadic logarithm of the Kd, by convention in mol/L. Take “GGACAUAUGAUGCAACGUUGUGGUCCCGUUUGCACUUUGUUUACG [sTN58]”: the negative-log Kd (pKd) in series [1] was 8.00. The binding signal in series [2] came out at 55.
